Where a chain is given by its changes, count along the chain named. In names and notes the source's numbering stands.

Sequences and labels used below:
B1: PC-50 (bispecific antibody)
light: GGVDFCALYHWPICYQGGGGSGGLSGRSDAGSPLGLAGSGGSDIQLTQSPSSLSASVGDRVSITCKASQDVSIAVAWYQQKPGKAPKLLIYSASYRYTGVPDRFSGSGSGTDFTLTISSLQPEDFAVYYCQQHYITPLTFGAGTKVEIKRTVAAPSVFIFPPSDEQLKSGTASVVCLLNNFYPREAKVQWKVDNALQSGNSQESVTEQDSKDSTYSLSSTLTLSKADYEKHKVYACEVTHQGLSSPVTKSFNRGEC
heavy: not shown
notes: Masked polypeptide complex: anti-TROP2 F108A, anti-CD3 H101A
B2: PC-39 (bispecific antibody)
light: B1 light
heavy: EVQLVESGGGLVQPGGSLRLSCAASGSTFYTAVMGWVRQAPGKGLEWVAAIRWTALTTSYADSVKGRFTISRDGAKTTLYLQMNSLRPEDTAVYYCAARGTLGLFTTADSYDYWGQGTLVTVSSGGGGSGGGSGGYLCGPDGDETLACYGGGGSGGGLSGRSDAGSPLGLAGSGGGSEVQLVESGGGLVQPGGSLKLSCAASGFTFNKYAMNWVRQASGKGLEWVGRIRSKYNNYATYYADSVKDRFTISRDDSKNTAYLQMNSLKTEDTAVYYCVRHGNFGNSYISYWAYWGQGTLVTVSSGGGGSGGGGSGGGGSQTVVTQEPSFSVSPGGTVTLTCRSSTGAVTSGNYANWVQQTPGQAPRGLIGGTKFLAPGVPDRFSGSILGNKAALTITGAQADDESDYYCVLWYSNRWVFGGGTKLTVLGGGGSQVQLQQSGSELKKPGASVKVSCKASGYTFTNYGMNWVKQAPGQGLKWMGWINTYTGEPTYTDDFKGRFAFSLDTSVSTAYLQISSLKADDTAVYFCARGGFGSSYWYADVWGQGSLVTVSSASTKGPSVFPLAPSSKSTSGGTAALGCLVKDYFPEPVTVSWNSGALTSGVHTFPAVLQSSGLYSLSSVVTVPSSSLGTQTYICNVNHKPSNTKVDKKVEPKSC
notes: Masked polypeptide complex: anti-TROP2 F108A, anti-CD3 with P41S, A49G, N87S ; E227D; CD3 mask YLCGPDGDETLACY
B3: PC-43 (bispecific antibody)
light: B1 light
heavy: EVQLVESGGGLVQPGGSLRLSCAASGSTFYTAVMGWVRQAPGKGLEWVAAIRWTALTTSYADSVKGRFTISRDGAKTTLYLQMNSLRPEDTAVYYCAARGTLGLFTTADSYDYWGQGTLVTVSSGGGGSGGGSGGGSACLGPEWEVCPYGGGGSGGGLSGRSDAGSPLGLAGSGGGSEVQLVESGGGLVQPGGSLKLSCAASGFTFNKYAMNWVRQASGKGLEWVGRIRSKYNNYATYYADSVKDRFTISRDDSKNTAYLQMNSLKTEDTAVYYCVRHGNFGNSYISYWAYWGQGTLVTVSSGGGGSGGGGSGGGGSQTVVTQEPSFSVSPGGTVTLTCRSSTGAVTSGNYANWVQQTPGQAPRGLIGGTKFLAPGVPDRFSGSILGNKAALTITGAQADDESDYYCVLWYSNRWVFGGGTKLTVLGGGGSQVQLQQSGSELKKPGASVKVSCKASGYTFTNYGMNWVKQAPGQGLKWMGWINTYTGEPTYTDDFKGRFAFSLDTSVSTAYLQISSLKADDTAVYFCARGGFGSSYWYADVWGQGSLVTVSSASTKGPSVFPLAPSSKSTSGGTAALGCLVKDYFPEPVTVSWNSGALTSGVHTFPAVLQSSGLYSLSSVVTVPSSSLGTQTYICNVNHKPSNTKVDKKVEPKSC
notes: Masked polypeptide complex: anti-TROP2 F108A, anti-CD3 with P41S, A49G, N87S ; E227D
B4: PC-51 (bispecific antibody)
light: B1 light
heavy: not shown
notes: Masked polypeptide complex: anti-TROP2 F108A, anti-CD3 L232A
B5: PC-52 (bispecific antibody)
light: B1 light
heavy: not shown
notes: Masked polypeptide complex: anti-TROP2 F108A, anti-CD3 N236A
B6: PC-41 (bispecific antibody)
light: B1 light
heavy: B2 heavy with Y136V, L137Y, D141E, G142F, T145S, L146V, A147G, Y149A
notes: as for B3
B7: Peptide-49 (peptide)
peptide: IDFCLLYKWPVCEL
notes: mask peptide for the TROP2 Fab
B8: Peptide-48 (peptide)
peptide: VDFCYMYKWPVCYP
notes: as for B7
B9: Peptide-57 (peptide)
peptide: IDFCYRYGWPVCQT
notes: as for B7
B10: Peptide-43 (peptide)
peptide: VDFCALYHWPICYQ
notes: as for B7
B11: Peptide-54 (peptide)
peptide: VDFCYRYSWPVCWA
notes: as for B7
B12: Peptide-46 (peptide)
peptide: VEFCAIYSWPICKI
notes: as for B7
B13: Peptide-50 (peptide)
peptide: VDFCAIYSWPICKI
notes: as for B7
B14: Peptide-51 (peptide)
peptide: VDFCGLYHWPICYQV
notes: as for B7
B15: Peptide-8 (peptide)
peptide: VDFCGLYHWPICYQ
notes: as for B7

One assay addresses T1, Human TROP2 Full length (human, UniProt P09758 31-323).
T1 sequence: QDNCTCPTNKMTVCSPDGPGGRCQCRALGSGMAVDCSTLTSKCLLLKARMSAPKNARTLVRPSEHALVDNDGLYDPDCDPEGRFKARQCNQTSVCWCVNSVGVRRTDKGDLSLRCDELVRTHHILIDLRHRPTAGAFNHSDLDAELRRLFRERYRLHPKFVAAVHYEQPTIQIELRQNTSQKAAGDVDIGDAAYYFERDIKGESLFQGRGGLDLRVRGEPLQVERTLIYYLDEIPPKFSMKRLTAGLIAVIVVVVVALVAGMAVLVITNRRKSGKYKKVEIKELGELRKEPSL
Kind of assay: cell-based or functional assay.
As to B1, the “H292 Cytotoxicity EC50 (pM)” value is over 100000 pM.

With B2, the “H292 Cytotoxicity EC50 (pM)” value came to 13700 pM and the “HCT116 Cytotoxicity EC50 (pM)” value is over 100000 pM.

As to B3, the “H292 Cytotoxicity EC50 (pM)” value is 12700 pM.

For B4, the “H292 Cytotoxicity EC50 (pM)” value was over 100000 pM.

Turning to B5, the “H292 Cytotoxicity EC50 (pM)” value came out at 98300 pM.

For B6, the “H292 Cytotoxicity EC50 (pM)” value stood at 47000 pM.

For the next assay, the target named is T2, Cyno TROP2 Full length (cynomolgus monkey, UniProt P09758 31-323 (human entry)).
T2 chain: T1 sequence with M32V, S63N, I200V, M262V, T268S
Description: cell-based or functional assay.
Take B1: the “CyTROP2 HEK293 EC50 (pM)” value was over 100000 pM.

For B2, the “CyTROP2 HEK293 EC50 (pM)” value is 665 pM.

With B3, the “CyTROP2 HEK293 EC50 (pM)” value came to 1220 pM.

As for B4, the “CyTROP2 HEK293 EC50 (pM)” value is 79300 pM.

With B5, the “CyTROP2 HEK293 EC50 (pM)” value came to 37700 pM.

Regarding B6, the “CyTROP2 HEK293 EC50 (pM)” value was 5130 pM.

In another assay the target is T3, TBD-1 wt (anti-TROP2 Fab, hRS7).
T3 construct: non-mutated Fab
Kind of assay: competition ELISA, Fab on captured TROP2.
Molecule B7 displayed an IC50 of 3730 nM.

Turning to B8, the IC50 came out at 10000 nM.

B9 showed an IC50 of 16700 nM. This IC50 is about 1.7-fold higher than that of the molecule before.

Turning to B10, the IC50 amounted to 270 nM.

Turning to B11, the IC50 turned out to be 27100 nM.

In turn, B12 gave an IC50 of 5140 nM.

As to B13, the IC50 was 560 nM.

The molecule B14 had an IC50 of 180 nM.

The target of the next assay is T4, TBD-6 (LC I93A).
T4 construct: anti-TROP2 Fab, CDR3 LC alanine mutant
Kind of assay: competition ELISA, Fab on captured TROP2. (In general: An ELISA detects its analyte on a solid surface through an enzyme-linked reagent.)
On to B7, for which the IC50 stood at 2250 nM. This counts as single-digit micromolar.

Molecule B8 registered an IC50 of 6260 nM.

For the molecule B9, the half-maximal inhibitory concentration (IC50) stood at 12700 nM.

Consider B15, for which the IC50 was found to be 760 nM.

In the case of B10, the 50% inhibitory concentration (IC50) worked out at 480 nM.

For B11, the IC50 turned out to be 23400 nM. This IC50 lies about 49-fold higher than the previous one.

In the case of B12, the half-inhibitory concentration (IC50) worked out at 5180 nM.

As to B13, the IC50 was found to be 920 nM.

In turn, B14 displayed an IC50 of 420 nM.

A further assay addresses T5, TBD-11 (HC R98A).
T5 construct: anti-TROP2 Fab, CDR3 HC alanine mutant
Kind of assay: competition ELISA, Fab on captured TROP2.
Take B7: the IC50 turned out to be 6370 nM.

For the molecule B8, the IC50 is 31300 nM.

Turning to B15, the half-maximal inhibitory concentration (IC50) came to 940 nM.

As for B10, the IC50 came out at 870 nM.

B12: the IC50 amounted to 22300 nM.

In the case of B13, the IC50 amounted to 1970 nM.

B14 yielded an IC50 of 620 nM.

In a further assay the target is T6, TBD-17 (HC S104A).
T6 construct: anti-TROP2 Fab, CDR3 HC alanine mutant
Description: competition ELISA, Fab on captured TROP2.
Turning to B7, the IC50 was 2530 nM.

On to B8, for which the IC50 was determined as 8860 nM.

Molecule B9 showed an IC50 of 17300 nM.

In turn, B15 registered an IC50 of 1250 nM.

Take B10: the IC50 was found to be 510 nM.

The molecule B11 showed an IC50 of 29900 nM. This IC50 is about 59-fold higher than that of the molecule before.

B12: the IC50 amounted to 11500 nM.

On to B13, for which the IC50 worked out at 1540 nM.

In the case of B14, the IC50 turned out to be 550 nM.

Another assay has as its target T7, TBD-21 (HC F108A).
T7 construct: anti-TROP2 Fab, CDR3 HC alanine mutant
Kind of assay: competition ELISA, Fab on captured TROP2.
Take B7: the IC50 came to 8670 nM. That is a single-digit micromolar value.

Turning to B8, the IC50 worked out at 75200 nM.

The molecule B9 gave an IC50 of 88100 nM.

B15: the IC50 was determined as 2120 nM.

For the molecule B10, the IC50 turned out to be 1040 nM.

Take B11: the IC50 was 161000 nM.

The molecule B12 displayed an IC50 of 25900 nM.

The molecule B13 registered an IC50 of 3700 nM.

Molecule B14 yielded an IC50 of 1270 nM.

The target in a further assay is T8, TBD-22 (HC D109A).
T8 construct: anti-TROP2 Fab, CDR3 HC alanine mutant
Description: competition ELISA, Fab on captured TROP2.
Molecule B7 returned an IC50 of 70 nM.

The molecule B8 displayed an IC50 of 310 nM.

Take B9: the IC50 is 1910 nM.

Consider B15, for which the IC50 stood at 100 nM.

In turn, B10 yielded an IC50 of 50 nM.

With B11, the IC50 worked out at 3620 nM.

In the case of B12, the IC50 turned out to be 700 nM. This IC50 lies about 5.2-fold lower than the previous one.

B13 registered an IC50 of 20 nM.

In turn, B14 gave an IC50 of 10 nM.

The target of another assay is T9, CD3 (human, UniProt P07766 23-126, limits assumed, biotinylated).
T9 construct: also called biotinylated CD3; CD3-biotin
Kind of assay: ELISA; biotinylated CD3 on neutravidin plates, PC titrated, HRP secondary.
B1 returned an EC50 of 454 nM. This lies in the sub-micromolar range.

B2 came in with an EC50 of 136 nM.

With B3, the EC50 came to 60.7 nM. This EC50 is about 2.2-fold lower than that of the molecule before.

Molecule B4 yielded an EC50 of 410 nM.

Consider B5, for which the EC50 stood at 242 nM.

B6: the EC50 was found to be 230 nM.

The next assay deals with T10, Human TROP2 ECD (31-274 AA) (human, UniProt P09758 31-274, biotinylated).
T10 construct: also called biotinylated TROP2; TROP2-biotin
T10 sequence: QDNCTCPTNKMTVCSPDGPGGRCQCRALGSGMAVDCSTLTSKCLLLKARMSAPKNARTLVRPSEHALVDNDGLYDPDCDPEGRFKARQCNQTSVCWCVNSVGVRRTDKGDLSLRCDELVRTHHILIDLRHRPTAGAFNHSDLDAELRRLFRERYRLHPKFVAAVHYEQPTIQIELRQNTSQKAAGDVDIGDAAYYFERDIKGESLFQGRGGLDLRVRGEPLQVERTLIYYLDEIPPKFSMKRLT
Description: ELISA; biotinylated TROP2 on neutravidin plates, PC titrated, HRP secondary.
Molecule B1 registered an EC50 of 1220 nM.

Turning to B2, the EC50 was 1090 nM.

As for B3, the EC50 worked out at 587 nM.

For the molecule B4, the EC50 is 1160 nM.

On to B5, for which the EC50 worked out at 1210 nM.

Molecule B6 came in with an EC50 of 1380 nM.

What is called IC50 is the concentration that gives 50% inhibition. A high value points to weaker potency in that assay. As a reminder, the EC50 is the concentration giving half of the maximal effect. Higher therefore signals a need for much substance.

For the origin of these results see US20230357429A1 (JANUX THERAPEUTICS, published 2023).
